The values that follow are results of earlier work, collected in paper PMC6661118.

Like-named read-outs stand apart in the source and are kept apart here.

In data set [1] the target is MDM2 (Homo sapiens) (UniProt Q00987).
Data set [2] has the same target. This is another data set of the same source.

Sequence of MDM2 (Homo sapiens) (Q00987 whole entry): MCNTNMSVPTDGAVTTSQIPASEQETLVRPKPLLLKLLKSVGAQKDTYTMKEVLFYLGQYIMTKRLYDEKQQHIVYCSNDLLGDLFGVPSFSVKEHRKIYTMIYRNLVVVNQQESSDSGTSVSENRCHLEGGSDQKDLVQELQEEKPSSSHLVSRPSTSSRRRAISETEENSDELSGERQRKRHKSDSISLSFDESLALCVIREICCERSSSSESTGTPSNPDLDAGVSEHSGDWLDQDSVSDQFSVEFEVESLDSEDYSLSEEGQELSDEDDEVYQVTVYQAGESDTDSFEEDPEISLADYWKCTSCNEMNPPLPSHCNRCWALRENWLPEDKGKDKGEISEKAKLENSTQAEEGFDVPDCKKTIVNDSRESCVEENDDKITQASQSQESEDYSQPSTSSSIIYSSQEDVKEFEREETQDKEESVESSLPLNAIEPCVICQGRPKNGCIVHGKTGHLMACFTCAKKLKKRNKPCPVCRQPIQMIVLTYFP

Regarding p53-SAH-8 (from UniProt P04637), the Kd with MDM2 (Homo sapiens) [1] is 55 nM.

For the substance p53 (from UniProt P04637), in the data set with MDM2 (Homo sapiens) [2], the Kd was 410 nM.

For orientation: Kd means the concentration at which binding is half-saturated.
